What was measured:
[1] = target: T1, human PVRIG on cells (human, UniProt Q6DKI7 1-326); assay: FACS on Jurkat cells pre-incubated with CHA.7.518.1 (unconjugated)
T1 construct: whole, on cells; over-expressed on HEK cells or endogenous on Jurkat and CD8 T cells; also called hPVRIG; HEK hPVRIG cells
T1 sequence (looked up): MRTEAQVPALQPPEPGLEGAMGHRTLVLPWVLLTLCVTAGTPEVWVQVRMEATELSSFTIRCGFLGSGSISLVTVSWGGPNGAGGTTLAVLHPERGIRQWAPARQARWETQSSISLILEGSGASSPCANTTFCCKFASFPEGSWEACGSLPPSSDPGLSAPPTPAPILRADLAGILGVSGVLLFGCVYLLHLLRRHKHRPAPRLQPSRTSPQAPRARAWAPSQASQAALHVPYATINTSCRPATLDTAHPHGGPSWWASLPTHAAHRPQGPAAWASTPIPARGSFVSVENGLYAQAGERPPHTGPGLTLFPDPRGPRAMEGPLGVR
Description: (§1) Data was acquired using a FACS Canto II and analysed using FlowJo, Excel, and Prism.

[2] = target: T1, human PVRIG on cells; assay: flow cytometry titration, HEK hPVRIG cells
Protocol: These cells were cultured in DMEM (Gibco)+10% fetal calf serum (Gibco)+glutamax (Gibco). For the HEK hPVRIG over-expressing cells, 0.5 ug/ml puromycin (Gibco) was also added to the media for positive selection. For FACS analysis, all cell lines were harvested in log phase growth and 50,000-100,000 cells per well were seeded in 96 well plates. […] The titration series was conducted as 3 fold serial dilutions. […] Data was acquired using a FACS Canto II (BD Biosciences), FACS LSR Fortessa X-20 (BD Biosciences), or IntelliCyt (IntelliCyt Corporation) and analyzed using FlowJo (Treestar) and Prism (Graphpad) software.

[3] = target: T2, PVRIG Fc (UniProt Q6DKI7 41-171, limits assumed, biotinylated (Example 5)); assay: FACS competition: biotinylated PVRIG Fc (33 nM) binding to HEK cells with endogenous PVRL2
T2 construct: also called biotinylated PVRIG Fc protein; PVRIG-Fc-fusion protein
T2 sequence (looked up): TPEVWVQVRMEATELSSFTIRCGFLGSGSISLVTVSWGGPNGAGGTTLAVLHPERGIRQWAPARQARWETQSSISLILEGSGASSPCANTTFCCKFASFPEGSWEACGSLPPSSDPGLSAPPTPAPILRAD
Protocol: (§2) Cells were washed twice in PBS for acquisition using a FACS Canto II. Data was analyzed using FlowJo, Excel (Microsoft), and Prism.

[4] = target: T1, human PVRIG on cells; assay: FACS KD, cell type 'HEK293 hPVRIG' (table beside the curve, column 'FACS KD (nM)')
[5] = target: T1, human PVRIG on cells; assay: FACS on Jurkat cells pre-incubated with CHA.7.538.1.2 (unconjugated)
Description: as §1

[6] = target: T1, human PVRIG on cells; assay: FACS KD, cell type 'Jurkat' (table beside the curve, column 'FACS KD (nM)')
[7] = target: T3, cynomolgus PVRIG on cells (cynomolgus, UniProt A0A2K5WVV8 41-322); assay: FACS KD, cell type 'HEK293 cPVRIG' (table beside the curve, column 'FACS KD (nM)')
T3 construct: whole, on cells; also called cPVRIG; expi cPVRIG cells
T3 sequence: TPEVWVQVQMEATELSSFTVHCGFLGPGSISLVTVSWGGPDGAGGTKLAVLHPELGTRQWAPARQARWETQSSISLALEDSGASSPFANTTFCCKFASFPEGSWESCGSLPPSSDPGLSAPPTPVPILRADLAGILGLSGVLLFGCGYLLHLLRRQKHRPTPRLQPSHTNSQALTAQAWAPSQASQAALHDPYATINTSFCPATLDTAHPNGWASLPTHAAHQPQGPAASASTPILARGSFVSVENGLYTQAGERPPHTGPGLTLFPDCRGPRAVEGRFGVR

[8] = target: T1, human PVRIG on cells; assay: FACS on Jurkat cells pre-incubated with Isotype (unconjugated)
Description: as §1

[9] = target: T3, cynomolgus PVRIG on cells; assay: flow cytometry titration, expi cPVRIG cells
Protocol: These cells were cultured in DMEM+10% fetal calf serum+glutamax. expi cPVRIG transient over-expressing cells were generated by electroporating cPVRIG DNA into parental expi cells using the Neon transfection system. For FACS analysis, expi cPVRIG cells were used between 1-3 days-post transfection. Parental expi cells were harvested from log growth phase. 50,000-100,000 cells of per well of each type were seeded in 96 well plates. […] The titration series were conducted as a 3-fold dilution series. […] Data was acquired using a FACS Canto II or IntelliCyte and analyzed using FlowJo and Prism software.

[10] = target: T1, human PVRIG on cells; assay: FACS competition: PVRL2 mFc binding to HEK hPVRIG cells
Protocol: Cells were washed twice in PBS for acquisition using a FACS Canto II. Data was analyzed using FlowJo, Excel and Prism.

[11] = target: T2, PVRIG Fc; assay: FACS blocking assay: binding of PVRIG Fc to HEK cells that endogenously express PVRL2, with the antibody titrated
Protocol: as §2

[12] = target: T4, mPVRL2 HIS (mouse, UniProt P32507 32-351, limits assumed); assay: ELISA: soluble PVRL2 HIS titrated on plates coated with mDNAM1-mFc
T4 construct: also called mPVRL2 protein; Soluble PVRL2 HIS protein
T4 sequence (looked up): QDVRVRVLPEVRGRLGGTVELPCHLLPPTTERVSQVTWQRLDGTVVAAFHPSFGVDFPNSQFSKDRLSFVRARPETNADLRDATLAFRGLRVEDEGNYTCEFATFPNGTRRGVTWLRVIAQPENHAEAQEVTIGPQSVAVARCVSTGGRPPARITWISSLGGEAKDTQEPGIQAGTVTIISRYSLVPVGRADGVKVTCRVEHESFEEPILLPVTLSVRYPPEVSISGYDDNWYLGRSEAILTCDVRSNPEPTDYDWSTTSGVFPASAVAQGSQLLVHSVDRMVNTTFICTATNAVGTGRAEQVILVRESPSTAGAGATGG

[13] = target: T5, human TIGIT on cells (human, UniProt Q495A1 22-141); assay: FACS blocking of human PVR-m2aFc binding to human TIGIT OE Expi293 cells; binding site concentration; n=2
T5 construct: also called Expi293 human TIGIT over-expressing cells
T5 sequence: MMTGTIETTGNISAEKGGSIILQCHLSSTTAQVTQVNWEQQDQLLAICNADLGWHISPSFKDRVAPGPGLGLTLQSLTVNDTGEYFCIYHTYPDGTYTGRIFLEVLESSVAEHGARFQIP

[14] = target: T5, human TIGIT on cells; assay: FACS titration on human TIGIT OE Expi293 cells, binding site concentration; ± 95% CI; 'Fit: Good/Excellent'; panel of the lower row
Protocol: (§3) AF647-labeled goat anti-human F(ab′) (Jackson Immunoresearch) was added to the cells to detect binding of anti-TIGIT antibodies.

[15] = target: T6, human TIGIT ECD with C-terminal polyhistidine tag (human, UniProt Q495A1 22-141); assay: SPR (ProteOn), mAb captured, human TIGIT injected; BM26 as hIgG4
T6 construct: in-house or Sino Biological; also called hTIGIT-HIS; human TIGIT-HIS
T6 sequence: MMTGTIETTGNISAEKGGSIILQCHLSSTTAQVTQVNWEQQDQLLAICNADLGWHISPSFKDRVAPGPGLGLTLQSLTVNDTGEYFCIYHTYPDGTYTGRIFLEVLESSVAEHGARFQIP

[16] = target: T5, human TIGIT on cells; assay: FACS titration on human TIGIT OE Expi293 cells, binding site concentration; ± 95% CI; 'Fit: Good/Excellent'; panel of the upper row
Protocol: as §3

[17] = target: T5, human TIGIT on cells; assay: FACS blocking: Expi293 human TIGIT cells pre-incubated with mAb, then human PVR-m2aFc; lower gMFI = more blocking
[18] = target: T6, human TIGIT ECD with C-terminal …; assay: SPR (ProteOn), Human TIGIT-His
[19] = target: T7, cyno TIGIT on cells (cynomolgus macaque); assay: FACS titration of AF647-labelled mAb on cyno effector memory CD8+ T cells, Cyno Donor 1; isotype gMFI subtracted
T7 construct: whole, on cells; also called Expi293 cyno TIGIT over-expressing cells

[20] = target: T8, Cyno TIGIT-His; assay: SPR (ProteOn), mAb captured, cyno TIGIT monomer injected; kd of this row held constant; BM26 as hIgG4
T8 construct: also called cyno TIGIT monomer (prepared in-house); C-terminal HIS-tagged cyno TIGIT ECD recombinant protein
T8 sequence (ECD with C-terminal His tag, as listed by the source): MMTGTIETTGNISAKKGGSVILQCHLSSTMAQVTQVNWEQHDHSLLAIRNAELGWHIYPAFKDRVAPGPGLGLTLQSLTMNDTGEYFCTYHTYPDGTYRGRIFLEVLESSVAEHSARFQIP

[21] = target: T8, Cyno TIGIT-His; assay: SPR (ProteOn), Cyno TIGIT-His
[22] = target: T9, Mouse TIGIT-His (mouse, UniProt P86176); assay: SPR (ProteOn), mAb captured, mouse TIGIT monomer injected; BM26 as hIgG4
T9 construct: also called mouse TIGIT monomer (prepared in-house)
T9 sequence (soluble monomer with His tag, looked up): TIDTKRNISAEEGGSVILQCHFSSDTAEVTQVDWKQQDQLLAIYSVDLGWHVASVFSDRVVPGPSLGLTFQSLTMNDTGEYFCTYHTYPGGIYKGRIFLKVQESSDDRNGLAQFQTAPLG

[23] = target: T7, cyno TIGIT on cells; assay: FACS titration on cyno TIGIT OE Expi293 cells, binding site concentration; ± 95% CI; 'Fit: Good'; panel of the lower row
Protocol: (§4) AF647-labeled goat anti-human F(ab′) (Jackson Immunoresearch) was added to the cells to detect binding of anti-TIGIT antibodies. The gMFI of the anti-TIGIT antibodies bound to the cyno TIGIT over-expressing Expi293 cells (black line), and the parental Expi293 cells (grey line) are shown.

[24] = target: T6, human TIGIT ECD with C-terminal …; assay: KinExA equilibrium, His-tagged human TIGIT, n = 1
Protocol: (§5) KinExA equilibrium experiments were performed using a KinExA 3200 instrument (Sapidyne Instruments, Boise, ID, USA) at 22° C. Recombinant His-tagged human TIGIT was obtained from Sino Biologicals (Beijing, China) and reconstituted into 1×PBS. All antigen and antibody samples for KinExA analyses were prepared in degassed PBST buffer (PBS with 0.05% tween 20) with 100 ug/mL filtered BSA and 0.02% sodium azide. […] For each KinExA experiment, ˜20 lag of human TIGIT was diluted into 1 mL of 50 mM sodium carbonate, pH 9.2 which was added directly to 50 mg of azlactone beads (Ultralink Support, Thermo Scientific, Rockford, IL, USA) and rocked overnight at 4° C. After rocking, the beads were rinsed once with 1 M Tris buffer, pH 8.5, containing 10 mg/mL BSA and rocked for one hour at room temperature in the same buffer. Coupled beads were added to the bead reservoir in the KinExA instrument and diluted to ˜30 mL with 1×HBS-N (0.01 M Hepes, 0.15M NaCl, GE Healthcare) containing 0.02% sodium azide which was also the running buffer for the KinExA instrument. All antigen-coupled beads were used immediately after preparation.
(§6) The volume flowed through the bead pack for each equilibrated sample for all experiments ranged from 4 mL to 11 mL at a flow rate of 0.25 mL/min.

[25] = target: T7, cyno TIGIT on cells; assay: FACS titration of AF647-labelled mAb on cyno effector memory CD8+ T cells, Cyno Donor 3; isotype gMFI subtracted
[26] = target: T5, human TIGIT on cells; assay: FACS titration of AF647-labelled mAb on human effector memory CD8+ T cells, Donor 322
[27] = target: T5, human TIGIT on cells; assay: FACS blocking of human PVR-m2aFc binding to human TIGIT OE Expi293 cells; binding site concentration; n=1
[28] = target: T5, human TIGIT on cells; assay: FACS titration of AF647-labelled mAb on human effector memory CD8+ T cells, Donor 321
[29] = target: T6, human TIGIT ECD with C-terminal …; assay: KinExA equilibrium, His-tagged human TIGIT, n = 2
Protocol: as §5, §6

[30] = target: T7, cyno TIGIT on cells; assay: FACS titration on cyno TIGIT OE Expi293 cells, binding site concentration; ± 95% CI; 'Fit: Excellent'; panel of the upper row
Protocol: as §4

[31] = target: T5, human TIGIT on cells; assay: FACS titration of AF647-labelled mAb on human effector memory CD8+ T cells, Donor 334

B1: CHA.7.518.1.H4(S241P) (antibody, human IgG4 S228P, kappa, V domains shown)
VH: QVQLVQSGAEVKKPGASVKVSCKASGYTFTDYNINWVRQAPGQGLEWMGYIYPYIGGSGYAQKFQGRVTMTRDTSTSTVYMELSSLRSEDTAVYYCAREDKTARNAMDYWGQGTLVTVSS
VL: DIQMTQSPSSLSASVGDRVTITCRVSENIYSNLAWYQQKPGKAPKLLIYEATNLAEGVPSRFSGSGSGTDFTLTISSLQPEDFATYYCQHFWGTPYTFGQGTKLEIKR
notes: humanized, human IgG4 with S241P; also called anti-PVRIG
Which results are given for B1?
% binding relative to maximum signal [1]: 14%; Kd [2]: 290 pM; IC50 [3]: 15000 pM; Kd [4]: 298 pM; % binding relative to maximum signal [5]: 7%; Kd [6]: 150 pM; Kd [7]: 248 pM; % binding relative to maximum signal [8]: 100%; Kd [9]: 240 pM; IC50 [10]: 1800 pM; IC50 (read off the curve) [11]: ~6000 pM

B2: DNAM1 Fc (Fc fusion, mouse (prefix m in FIG. 95D), UniProt Q8K4F0 19-254, looked up)
fusion chain: EETLWDTTVRLSETMTLECVYPLTHNLTQVEWTKNTGTKTVSIAVYNPNHNMHIESNYLHRVHFLNSTVGFRNMSLSFYNASEADIGIYSCLFHAFPNGPWEKKIKVVWSDSFEIAAPSDSYLSAEPGQDVTLTCQLPRTWPVQQVIWEKVQPHQVDILASCNLSQETRYTSKYLRQTRSNCSQGSMKSILIIPNAMAADSGLYRCRSEAITGKNKSFVIRLIITDGGTNKHFILP
notes: receptor part of an Fc fusion; also called mDNAM1-mFc
Does B2 bind [12]?
Result: binds

B3: BM26 hIgG4 (antibody, V domains shown)
VH: EVQLQQSGPELVKPGSSVKMSCKASGYTFSSYVMHWVKQKPGQGLEWIGYIDPYNDGAKYNEKFKGKATLTSDKSSSTAYMELSSLTSEDSAVYYCARGGPYGWYFDVWGAGTTVTVSS
VL: DIQMTQSPASLSASVGETVTITCRASEHIYSYLSWYQQKQGKSPQLLVYNAKTLAEGVPSRFSGSGSGTQFSLKINSLQPEDFGTYYCQHHFGSPLTFGAGTTLELKR
notes: benchmark anti-human TIGIT antibody, human IgG4 with S241P; also called BM26-H4; WO2016/028656A1 Clone 3106 as hIgG4
B3 was tested. Which IC50 [13] did it give?
Its IC50 is 260 pM.

What about the Kd [14] of the same binder?
The Kd was 740 pM.

And the Kd [15]?
The Kd was 24.1 pM.

What about the Kd [16] of the same binder?
Its Kd is 440 pM.

And the “gMFI of bound PVR-m2aFc at 266 pM mAb” value [17]?
The value was 719.

And the “gMFI of bound PVR-m2aFc at 1.3 nM mAb” value [17]?
The value was 401.

What about the “gMFI of bound PVR-m2aFc at 6.7 nM mAb” value [17] of the same binder?
The value was 234.

What about the Kd [18] of the same binder?
Its Kd is 4 pM.

What about the Kd [19] of the same binder?
The Kd was 4600 pM.

And the Kd [20]?
The Kd was 1.25 pM.

What about the Kd [21] of the same binder?
Its Kd is 3.5 pM.

Does B3 bind [22]?
Result: no binding (tested: 92.9 nM mouse TIGIT)

And the Kd [23]?
The Kd was 1120 pM.

What about the Kd [24] of the same binder?
The Kd was 8.2 pM.

What about the Kd [25] of the same binder?
Its Kd is 7500 pM.

What about the Kd [26] of the same binder?
The Kd was 1400 pM.

And the IC50 [27]?
Its IC50 is 450 pM.

What about the Kd [28] of the same binder?
Its Kd is 930 pM.

And the Kd [29]?
Its Kd is 11.2 pM.

What about the Kd [30] of the same binder?
Its Kd is 690 pM.

What about the Kd [31] of the same binder?
The Kd was 810 pM.
